{"source": "paper PMC6314159", "target": "TP53 (Homo sapiens) (UniProt P04637)", "sequence (P04637 whole entry)": "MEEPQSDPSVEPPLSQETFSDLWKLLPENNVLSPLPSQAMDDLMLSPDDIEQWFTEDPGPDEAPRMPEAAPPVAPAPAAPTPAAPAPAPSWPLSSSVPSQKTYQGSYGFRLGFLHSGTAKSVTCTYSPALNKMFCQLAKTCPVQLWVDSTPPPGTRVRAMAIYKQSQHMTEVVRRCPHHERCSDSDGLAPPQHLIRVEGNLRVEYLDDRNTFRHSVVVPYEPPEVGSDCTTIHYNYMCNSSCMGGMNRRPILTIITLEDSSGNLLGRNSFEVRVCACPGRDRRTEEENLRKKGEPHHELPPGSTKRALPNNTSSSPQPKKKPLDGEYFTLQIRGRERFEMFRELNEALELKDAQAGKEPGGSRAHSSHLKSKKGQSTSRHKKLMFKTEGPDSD", "test": "EMSA-seq"}
{"sequence": "GATGGACCCTATACGCGGCCGCCCTGGAGAATCCCGGTGCCGAGGCCGCTCAATTGGTCGTAGACAGCTCTAGCACCGCTTAAACGCACGTACGCGCTGTCCCCCGCGTTTTAACCGCCAAGGGGATTACTCCCTAGTCTCCAGGCACGTGTCAGATATATACATCCTGTGCGGGCATGTCCGGGCATGTCCGCCGGTGCCAGTCGGATAGTGTTCC (double strand) [High SHL 8 nucleosome (linker)]", "values": [{"measurement": "Kd", "value": 0.019, "unit": "µM"}]}
